According to paper PMC5588873 (Cell reports, 2017):

Target: TNRC6A (human (endogenous in HeLa), UniProt Q8NDV7 1-1962)
Test: affinity purification with mass spectrometry

Chain of TNRC6A (Q8NDV7 whole entry): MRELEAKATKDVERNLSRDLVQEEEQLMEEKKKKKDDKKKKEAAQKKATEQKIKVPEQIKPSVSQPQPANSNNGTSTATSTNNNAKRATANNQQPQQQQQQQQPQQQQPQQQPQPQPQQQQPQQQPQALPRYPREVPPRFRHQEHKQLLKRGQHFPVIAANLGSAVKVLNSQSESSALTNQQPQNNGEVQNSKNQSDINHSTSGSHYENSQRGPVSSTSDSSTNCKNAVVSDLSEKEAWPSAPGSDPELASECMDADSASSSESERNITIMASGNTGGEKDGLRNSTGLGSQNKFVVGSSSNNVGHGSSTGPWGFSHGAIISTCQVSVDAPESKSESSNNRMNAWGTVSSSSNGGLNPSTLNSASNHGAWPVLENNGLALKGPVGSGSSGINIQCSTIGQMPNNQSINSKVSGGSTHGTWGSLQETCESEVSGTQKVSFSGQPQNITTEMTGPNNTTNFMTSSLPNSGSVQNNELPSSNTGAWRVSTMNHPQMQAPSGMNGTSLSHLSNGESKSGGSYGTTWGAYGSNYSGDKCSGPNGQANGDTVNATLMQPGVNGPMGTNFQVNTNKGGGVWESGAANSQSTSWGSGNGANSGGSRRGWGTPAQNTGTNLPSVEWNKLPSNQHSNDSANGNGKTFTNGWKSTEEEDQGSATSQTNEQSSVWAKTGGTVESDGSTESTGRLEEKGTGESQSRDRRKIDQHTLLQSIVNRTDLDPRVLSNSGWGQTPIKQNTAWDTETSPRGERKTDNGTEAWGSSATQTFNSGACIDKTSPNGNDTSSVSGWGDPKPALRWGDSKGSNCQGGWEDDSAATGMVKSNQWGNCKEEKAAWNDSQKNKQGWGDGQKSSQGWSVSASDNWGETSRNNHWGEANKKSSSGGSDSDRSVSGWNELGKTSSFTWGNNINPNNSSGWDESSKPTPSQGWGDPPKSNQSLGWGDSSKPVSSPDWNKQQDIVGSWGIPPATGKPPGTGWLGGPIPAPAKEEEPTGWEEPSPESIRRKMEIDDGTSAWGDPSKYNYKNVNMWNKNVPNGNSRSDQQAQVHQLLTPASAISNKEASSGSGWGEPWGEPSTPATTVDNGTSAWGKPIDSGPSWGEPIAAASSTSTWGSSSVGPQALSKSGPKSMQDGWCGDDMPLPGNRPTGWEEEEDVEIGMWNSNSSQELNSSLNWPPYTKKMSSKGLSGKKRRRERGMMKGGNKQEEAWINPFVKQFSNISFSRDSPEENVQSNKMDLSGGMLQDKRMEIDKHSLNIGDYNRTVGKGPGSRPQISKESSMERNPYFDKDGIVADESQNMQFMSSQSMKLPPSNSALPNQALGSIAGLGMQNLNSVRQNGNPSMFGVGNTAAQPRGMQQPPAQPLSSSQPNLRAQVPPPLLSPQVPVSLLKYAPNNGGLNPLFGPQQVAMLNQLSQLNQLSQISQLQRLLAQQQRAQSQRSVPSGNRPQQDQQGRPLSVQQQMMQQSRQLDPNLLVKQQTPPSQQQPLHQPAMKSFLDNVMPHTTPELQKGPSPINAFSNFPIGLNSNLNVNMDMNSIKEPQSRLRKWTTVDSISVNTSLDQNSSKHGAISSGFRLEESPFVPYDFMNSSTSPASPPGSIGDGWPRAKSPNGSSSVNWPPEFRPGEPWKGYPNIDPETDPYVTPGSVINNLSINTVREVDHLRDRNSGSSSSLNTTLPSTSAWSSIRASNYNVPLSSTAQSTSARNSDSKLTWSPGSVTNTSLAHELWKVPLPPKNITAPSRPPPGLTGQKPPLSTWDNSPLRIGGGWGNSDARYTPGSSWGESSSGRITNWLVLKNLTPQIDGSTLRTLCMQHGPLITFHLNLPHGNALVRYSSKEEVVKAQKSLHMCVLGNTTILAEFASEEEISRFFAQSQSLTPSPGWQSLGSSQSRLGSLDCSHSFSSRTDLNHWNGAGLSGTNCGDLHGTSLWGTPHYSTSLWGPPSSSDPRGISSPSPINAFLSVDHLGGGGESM

| stoichiometry N | Binder |
| --- | --- |
| 2.2 per TNRC6A (=1) | AGO2 (natural protein) not shown |
| ~1.52 per TNRC6A (=1) | TP53BP1 (natural protein, human (endogenous in HeLa), UniProt Q12888 1-1972, looked up) MDPTGSQLDSDFSQQDTPCLIIEDSQPESQVLEDDSGSHFSMLSRHLPNLQTHKENPVLDVVSNPEQTAGEERGDGNSGFNEHLKENKVADPVDSSNLDTCGSISQVIEQLPQPNRTSSVLGMSVESAPAVEEEKGEELEQKEKEKEEDTSGNTTHSLGAEDTASSQLGFGVLELSQSQDVEENTVPYEVDKEQLQSVTTNSGYTRLSDVDANTAIKHEEQSNEDIPIAEQSSKDIPVTAQPSKDVHVVKEQNPPPARSEDMPFSPKASVAAMEAKEQLSAQELMESGLQIQKSPEPEVLSTQEDLFDQSNKTVSSDGCSTPSREEGGCSLASTPATTLHLLQLSGQRSLVQDSLSTNSSDLVAPSPDAFRSTPFIVPSSPTEQEGRQDKPMDTSVLSEEGGEPFQKKLQSGEPVELENPPLLPESTVSPQASTPISQSTPVFPPGSLPIPSQPQFSHDIFIPSPSLEEQSNDGKKDGDMHSSSLTVECSKTSEIEPKNSPEDLGLSLTGDSCKLMLSTSEYSQSPKMESLSSHRIDEDGENTQIEDTEPMSPVLNSKFVPAENDSILMNPAQDGEVQLSQNDDKTKGDDTDTRDDISILATGCKGREETVAEDVCIDLTCDSGSQAVPSPATRSEALSSVLDQEEAMEIKEHHPEEGSSGSEVEEIPETPCESQGEELKEENMESVPLHLSLTETQSQGLCLQKEMPKKECSEAMEVETSVISIDSPQKLAILDQELEHKEQEAWEEATSEDSSVVIVDVKEPSPRVDVSCEPLEGVEKCSDSQSWEDIAPEIEPCAENRLDTKEEKSVEYEGDLKSGTAETEPVEQDSSQPSLPLVRADDPLRLDQELQQPQTQEKTSNSLTEDSKMANAKQLSSDAEAQKLGKPSAHASQSFCESSSETPFHFTLPKEGDIIPPLTGATPPLIGHLKLEPKRHSTPIGISNYPESTIATSDVMSESMVETHDPILGSGKGDSGAAPDVDDKLCLRMKLVSPETEASEESLQFNLEKPATGERKNGSTAVAESVASPQKTMSVLSCICEARQENEARSEDPPTTPIRGNLLHFPSSQGEEEKEKLEGDHTIRQSQQPMKPISPVKDPVSPASQKMVIQGPSSPQGEAMVTDVLEDQKEGRSTNKENPSKALIERPSQNNIGIQTMECSLRVPETVSAATQTIKNVCEQGTSTVDQNFGKQDATVQTERGSGEKPVSAPGDDTESLHSQGEEEFDMPQPPHGHVLHRHMRTIREVRTLVTRVITDVYYVDGTEVERKVTEETEEPIVECQECETEVSPSQTGGSSGDLGDISSFSSKASSLHRTSSGTSLSAMHSSGSSGKGAGPLRGKTSGTEPADFALPSSRGGPGKLSPRKGVSQTGTPVCEEDGDAGLGIRQGGKAPVTPRGRGRRGRPPSRTTGTRETAVPGPLGIEDISPNLSPDDKSFSRVVPRVPDSTRRTDVGAGALRRSDSPEIPFQAAAGPSDGLDASSPGNSFVGLRVVAKWSSNGYFYSGKITRDVGAGKYKLLFDDGYECDVLGKDILLCDPIPLDTEVTALSEDEYFSAGVVKGHRKESGELYYSIEKEGQRKWYKRMAVILSLEQGNRLREQYGLGPYEAVTPLTKAADISLDNLVEGKRKRRSNVSSPATPTASSSSSTTPTRKITESPRASMGVLSGKRKLITSEEERSPAKRGRKSATVKPGAVGAGEFVSPCESGDNTGEPSALEEQRGPLPLNKTLFLGYAFLLTMATTSDKLASRSKLPDGPTGSSEEEEEFLEIPPFNKQYTESQLRAGAGYILEDFNEAQCNTAYQCLLIADQHCRTRKYFLCLASGIPCVSHVWVHDSCHANQLQNYRNYLLPAGYSLEEQRILDWQPRENPFQNLKVLLVSDQQQNFLELWSEILMTGGAASVKQHHSSAHNKDIALGVFDVVVTDPSCPASVLKCAEALQLPVVSQEWVIQCLIVGERIGFKQHPKYKHDYVSH |
